Test results: the supplement of paper PMC7877785
± gives the uncertainty stated by the source.

Assay: self-splicing fitness, log relative to wild type (ln ratio); higher = more splicing; Tetrahymena group I intron in knt gene, E. coli kanamycin selection, DiMSum; sequences stand for … in CUCUCU…GGAGGGAAAAGUUAUCAGGCAUGCACCUGGUAGCUAGUCUUUAAACCAAUAGAUUGCAUCGGUUUAAAAGGCAAGACCGUCAAAUUGCGGGAAAGGGGUCAACAGCCGUUCAGUACCAAGUCUCAGGGGAAACUUUGAGAUGGCCUUGCAAAGGGUAUGGUAAUAAGCUGACGGACAUGGUCCUAACCACGCAGCCAAGUCCUAAGUCAACAGAUCUUCUGUUGAUAUGGAUGCAGUUCACAGACUAAAUGUCGGUCGGGGAAGAUGUAUUCUUCUCAUAAGAUAUAGUCGGACCUCUCCUUAAUGGGAGCUAGCGGAUGAAGUGAUGCAACACUGGAGCCGCUGGGAACUAAUUUGUAUGCGAAAGUAUAUUGAUUAGUUUUGGAGUACUCGUGGUCG
Summary of the method: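 Pooled colonies went to amplicon sequencing on an Illumina HiSeq 2500 after six replicate transformations. The plates were LB agar with 100 μg/mL carbenicillin, 50 μM IPTG and 0.2% rhamnose, with or without 25 μg/mL kanamycin, incubated overnight at 37°C or 30°C. The E. coli BL21(DE3) library had all eight P1ex-region intron nucleotides randomised, the intron placed in the knt kanamycin-resistance gene on pET-22b(+). DiMSum fitness is the error-weighted combination of replicate fold changes, kanamycin against none, normalised to wild type.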

| Sequence | self-splicing fitness (ln) (30 °C) | self-splicing fitness (ln) (37 °C) |
| --- | --- | --- |
| CAUAAGCAAUAUUACGAGCU | -4 ± 0.34 | -2.76 ± 0.3 |
| GGUCAGCAAUAUUACGAACG | 0.0341 ± 0.039 | 0.332 ± 0.057 |
| AGAAAGCAAUAUUACGGAAA | -1.63 ± 0.14 | -1.33 ± 0.15 |
| CAACAGCAAUAUUACGAUCG | -0.183 ± 0.052 | 0.463 ± 0.069 |
| GGUUAGCAAUAUUACGGGUU | -1.99 ± 0.1 | -1.48 ± 0.12 |
| CCCUAGCAAUAUUACGGUGC | -3.43 ± 0.12 | -2.88 ± 0.17 |
| AAACAGCAAUAUUACGCUUC | -3.6 ± 0.26 | -2.35 ± 0.21 |
| UAGAAGCAAUAUUACGGCCA | -0.205 ± 0.077 | -0.611 ± 0.081 |
| UAGUAGCAAUAUUACGAACA |  | -0.405 ± 0.42 |
| CCCGAGCAAUAUUACGACAC | -3.41 ± 0.4 |  |
| ACUCAGCAAUAUUACGGUAA | -1.66 ± 0.092 | -0.871 ± 0.081 |
| GGUGAGCAAUAUUACGAGUC | -1.67 ± 0.24 | -1.83 ± 0.37 |
| AAAGAGCAAUAUUACGAAAC | -3.23 ± 0.44 | -2.67 ± 0.48 |
| GUCAAGCAAUAUUACGCCAU | -4.64 ± 0.42 | -3.01 ± 0.18 |
| UGAAAGCAAUAUUACGAUCA | -0.309 ± 0.084 | -0.381 ± 0.1 |
| GCGCAGCAAUAUUACGACUG | -1.91 ± 0.12 | -1.98 ± 0.23 |
| CUUAAGCAAUAUUACGAUUU | -4.53 ± 0.42 | -2.7 ± 0.24 |
| CGUGAGCAAUAUUACGCGGU | -3.83 ± 0.34 | -2.06 ± 0.32 |
| UGAUAGCAAUAUUACGGGCG | -0.568 ± 0.099 | 0.157 ± 0.1 |
| UACCAGCAAUAUUACGCCCU | -0.895 ± 0.12 | 0.138 ± 0.13 |
| UGGCAGCAAUAUUACGUGUU | -3.93 ± 0.19 | -2.2 ± 0.12 |
| CUCAAGCAAUAUUACGGGUC | -4.31 ± 0.17 | -2.48 ± 0.12 |
| AUCCAGCAAUAUUACGUGGA | -4.34 ± 0.39 | -2.23 ± 0.19 |
| CGACAGCAAUAUUACGGUUU | -1.64 ± 0.058 | -0.714 ± 0.084 |
| CUUGAGCAAUAUUACGUGUU |  | -2.54 ± 0.23 |
| CAGCAGCAAUAUUACGCCCA | -1.98 ± 0.14 | -0.0298 ± 0.12 |

| Sequence | self-splicing fitness (ln) (30 °C) | self-splicing fitness (ln) (37 °C) |
| --- | --- | --- |
| UAAGAGCAAUAUUACGCCGA | -2.94 ± 0.47 |  |
| AUGCAGCAAUAUUACGUUCG | -0.728 ± 0.059 | -0.798 ± 0.089 |
| CAGGAGCAAUAUUACGCUAU | -3.39 ± 0.4 | -2.39 ± 0.24 |
| UGUGAGCAAUAUUACGUAAG | -1.7 ± 0.15 | -0.85 ± 0.21 |
| ACGGAGCAAUAUUACGCCUC | -2.43 ± 0.43 | -1.82 ± 0.27 |
| AGUGAGCAAUAUUACGCUAU | -3.19 ± 0.23 | -2.43 ± 0.42 |
| CCGGAGCAAUAUUACGAACU | -2.29 ± 0.31 | -0.657 ± 0.28 |
| GAAAAGCAAUAUUACGACAG | -2.55 ± 0.19 | -2.27 ± 0.25 |
| GAAUAGCAAUAUUACGGUUC | -3.69 ± 0.17 | -3.25 ± 0.33 |
| UGUUAGCAAUAUUACGUAUU |  | -2.12 ± 0.3 |
| UCUUAGCAAUAUUACGUGGC |  | -1.6 ± 0.42 |
| GAAUAGCAAUAUUACGUAGA | -3.35 ± 0.15 | -1.55 ± 0.11 |
| GGAUAGCAAUAUUACGAGGC | -3.93 ± 0.31 | -2.43 ± 0.37 |
| UCGAAGCAAUAUUACGUUUG | -2.67 ± 0.13 | -1.88 ± 0.15 |
| GUAUAGCAAUAUUACGGCAU | -0.587 ± 0.081 | -0.661 ± 0.1 |
| CCAAAGCAAUAUUACGAUCU | -2.43 ± 0.14 | -2.97 ± 0.35 |
| AUGCAGCAAUAUUACGAAUU | -1.9 ± 0.1 | -0.246 ± 0.12 |
| GGUCAGCAAUAUUACGACGU | 0.0937 ± 0.091 | 0.477 ± 0.1 |
| GUACAGCAAUAUUACGUGGG | -3.76 ± 0.13 | -3.18 ± 0.14 |
| CUCAAGCAAUAUUACGGCCG | -1.2 ± 0.13 | -1.69 ± 0.24 |
| UAUGAGCAAUAUUACGGCGC | -3.47 ± 0.48 | -1.46 ± 0.29 |
| UUCUAGCAAUAUUACGAUAA | -1.46 ± 0.16 | -0.147 ± 0.19 |
| AUUAAGCAAUAUUACGCUCU | -0.588 ± 0.18 | 0.11 ± 0.16 |
| GCAAAGCAAUAUUACGAUAC | -1.69 ± 0.1 | -0.587 ± 0.14 |
| GUACAGCAAUAUUACGCACC | -2.67 ± 0.26 | -2.35 ± 0.38 |
| UUACAGCAAUAUUACGUGUU | -3.43 ± 0.14 | -2.13 ± 0.13 |

| Sequence | self-splicing fitness (ln) (30 °C) | self-splicing fitness (ln) (37 °C) |
| --- | --- | --- |
| UGCUAGCAAUAUUACGAAAA | -2.16 ± 0.15 | -1.72 ± 0.15 |
| UAGUAGCAAUAUUACGCGCG | -0.283 ± 0.077 | -0.281 ± 0.1 |
| UCGCAGCAAUAUUACGAUUG | -3.66 ± 0.18 | -1.9 ± 0.16 |
| CGCCAGCAAUAUUACGUUAA | -3.31 ± 0.22 | -2.57 ± 0.17 |
| AGUCAGCAAUAUUACGUUCA | -1.5 ± 0.099 | -0.803 ± 0.081 |
| ACAAAGCAAUAUUACGUGCU | -0.981 ± 0.069 | -0.486 ± 0.082 |
| CGAUAGCAAUAUUACGGCUA | -3.24 ± 0.49 | -1.08 ± 0.17 |
| GAUGAGCAAUAUUACGGGGC | -3.24 ± 0.33 | -2.28 ± 0.23 |
| CCGUAGCAAUAUUACGCAGU | -2.54 ± 0.18 | -2.6 ± 0.27 |
| CGCGAGCAAUAUUACGGUGU | -3.91 ± 0.17 | -2.34 ± 0.15 |
| CCAAAGCAAUAUUACGAAGG | -3.61 ± 0.15 | -2.9 ± 0.3 |
| GUCUAGCAAUAUUACGCACU | -0.628 ± 0.047 | 0.389 ± 0.063 |
| AGCUAGCAAUAUUACGCAGC |  | -0.17 ± 0.24 |
| CUUUAGCAAUAUUACGAGGA | -2.59 ± 0.32 | -3.02 ± 0.4 |
| GCCUAGCAAUAUUACGGCUA | -1.2 ± 0.46 | -2.49 ± 0.39 |
| ACCCAGCAAUAUUACGACCG | -2.05 ± 0.17 | -0.527 ± 0.18 |
| CCCCAGCAAUAUUACGAAUU | -3.01 ± 0.23 | -1.59 ± 0.36 |
| AUAAAGCAAUAUUACGAGAA | -2.7 ± 0.19 | -1.85 ± 0.23 |
| UUGGAGCAAUAUUACGAGUG | -4.05 ± 0.33 | -3.04 ± 0.24 |
| CGCAAGCAAUAUUACGAAUC | -4.8 ± 0.38 | -1.29 ± 0.18 |
| AGUUAGCAAUAUUACGUACU | -1.16 ± 0.13 | -0.298 ± 0.12 |
| GGGGAGCAAUAUUACGAGUU | -3.08 ± 0.45 |  |
| AGUGAGCAAUAUUACGCCUA | -3 ± 0.3 | -0.802 ± 0.18 |
| GGGCAGCAAUAUUACGGCUU | -0.964 ± 0.15 | -1.14 ± 0.16 |
| GAUCAGCAAUAUUACGAUGC | -0.684 ± 0.12 | 0.0112 ± 0.12 |
